Reference: the RNAGym collection of RNA variant scans (doi:10.1073/pnas.2313332121)
Fewer inactive variants are shown than the library holds.

B1: TPR 5TU (parent)
chain: GGAUCUUCUCGAUCUAACAAAAAAGACAAAUCUGCCACAAAGCUUGAGAGCAUCUUCGGAUGCAGAGGCGGCAGCCUUCGGUGGCGCGAUAGCGCCAACGUUCUCAACUAUGACACGCAAAACGCGUGCUCCGUUGAAUGGAGUUUAUCAUG

Variants of: B1
Experiment: polymerase ribozyme fitness, log enrichment relative to wild type (log ratio); higher = more active; in vitro selection for triplet polymerase activity
Outline: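 Fitness is a logarithmic measure of how a genotype enriched relative to the wild type, with replicate averages weighted by inverse variance. The logarithm uses base 2, and enrichment came from Illumina sequencing of input and output libraries. Those libraries were PCR-built, transcribed mutants of each subunit of a heterodimeric triplet polymerase ribozyme, passed through one triplicate in vitro selection round that included frozen incubation at −7 °C, gel excision of extended constructs and streptavidin-bead capture. Genotypes were kept only if they had ≥10 input reads and ≥1 read per output.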

Point of comparison: U56A G65A G94C A150U, “polymerase ribozyme fitness (log ratio)” value -1.57. Against it:
- C57G U78A G84A G94C C103U C105A G133U G140U U144C — lower, ≤ -4.2
- U56A C96U U145A G152A — lower, -2
- C57A A113U — lower, -1.86
- U56C C57U A89U C95G A137C — lower, -4.07
- U56C U82G — higher, -0.541
- U56A C103A A110G U144G — lower, -3.91
- U56G A150C — lower, -3.51
- C57A U102C C103U — lower, -2.76
- U56G C93U A107G A120U — lower, -4.12
- C57G G58A A91G — lower, -3.24
- C57U C76A C93U C116A U151G — lower, ≤ -4.2
- U56A G58C C85U — higher, -0.365
- U56G C57A G81A A107C G117A — lower, ≤ -4.2
- C57A A89G C95U A119U A120U C125U — within 0.2 log units, -1.54
- U56A G81C A120C G141A — higher, 0.526
- U56G U78G C79U G86A C87G C95A A115U G152C — lower, ≤ -4.2
- C57A G83C G141A — higher, -0.777
- C57A A60G U101A U109A A113U — lower, -3.65
- U56A G80U — higher, -0.898
- U56A C96U G133A — lower, ≤ -4.2
- U56G G81U A91G — lower, -3.38
- C57G A150G — higher, -1.23
- U56A C149U — higher, -0.627
- C57A C69G A91U A119G G128A G140C U145G — lower, ≤ -4.2
- C57G C96G U145A — higher, -0.71
- C57G G84U A89C G112C U139C C149A — lower, ≤ -4.2
- U56A G58A G88C — lower, -3.84
- C57G G68A G84U G126C U135G U144A — lower, ≤ -4.2
- C57U A97G — higher, -0.11
- C57U A110G — lower, -2.85
- U56A C103U — higher, -0.0268
- U56A C103G — higher, -0.914
- U56A G136A — higher, -0.463
- U56A G58U A97C C99A — lower, -2.52
- U56A U90C U144G — lower, -3.91
- U56C G62U C87U — higher, -0.567
- C57G G59U C85U — higher, -1.11
- U56A G92C — within 0.2 log units, -1.7
- U56A G92A — lower, -2.28
- C57A C85A — higher, -1.28
- C57A C85U — higher, -0.0999
- C57A C85G — within 0.2 log units, -1.75
- C57A C87A C116G U127A C129U A137G C149U — lower, ≤ -4.2
- C57U A64C A89U G128U U148A — lower, ≤ -4.2
- U56A U101A — higher, -0.244
- U56A G86A — higher, -1.16
- U56C G59A G92U U135A — lower, -2.19
- C57G G58A G86U — within 0.2 log units, -1.7
- U56A G58C C93A G124A — lower, -2.36
- C57A U82G G84U C95A — higher, -0.701
- C57A G59U U77A C99G — lower, ≤ -4.2
- C57A C76U C85U G92C G126C — lower, -2.15
- C57G G141A — higher, 0.453
- C57A G136A — higher, 0.714
- U56A G59A C105G A110G A150C — lower, ≤ -4.2
- U56A U61C — lower, -3.45
- U56A U109C — lower, -3.5
- U56G G84A — lower, -3.48
- C57A C85U A106U C125G G136U U146G — lower, -3.77
- U56G C76U A91G A122U C149G — lower, ≤ -4.2
- C57G G84A C103U A110G — lower, -3.52
- C57G G65C G84A U139A G140U — lower, ≤ -4.2
- U56A G84A — higher, -1.06
- U56A C118U C123G U144C — higher, -0.722
- U56G G68U G81A G84A A91C U135C — lower, ≤ -4.2
- U56A G80C G92A — lower, ≤ -4.2
- U56A G67C C93U C103A U130A U148C — lower, ≤ -4.2
- C57A G65A U82G — higher, -0.673
- U56G C103A A122U U146A — lower, -2.78
- C57G G67U G92C A106C — lower, ≤ -4.2
- C57A G80C A137C G143U — lower, ≤ -4.2
- U56A G83C G100U — lower, ≤ -4.2
- U56G C116G — higher, -0.0028
- U56A G83C C87U A89C C108U U144C — lower, ≤ -4.2
- U56A G58C G92A A106G — lower, -3.51
- U56A C95U C99U C125G — lower, -2.57
- C57G C116A — higher, 1.35
- C57U A91G A97G U135A G143A — lower, ≤ -4.2
- U56A G59A C96U — higher, 0.392
- C57A A60C — higher, -1.35
- U56A G152U — lower, -2.37
- U56A G152A — lower, -2.52
- C57A U82A A121U G133C — higher, -0.916
- C57A G100C — lower, ≤ -4.2
- C57G U77C G84A U134A — lower, ≤ -4.2
- C57A A60G C79G — lower, -3.6
- U56A G117C — higher, -0.369
- U56A G117A — higher, -0.176
- U56A G84U A89C A142U — lower, -3.24
- U56A G59C U144G — higher, 2.23
- U56A G71U C125G — lower, -3.78
- U56A G80U G84U U102G G124U — lower, ≤ -4.2
- U56C G67U A91C A97U C123A — lower, ≤ -4.2
- C57G G65A U134C — higher, -1.35
- C57G C85U G117U C118G — within 0.2 log units, -1.51
- U56A U102G — lower, -2.4
- U56A U82C C93U — within 0.2 log units, -1.41
- U56A G92U U102A U134C — within 0.2 log units, -1.59
- U56G C93U A110U — lower, -3.71
- U56C G81U G92U C108G — lower, ≤ -4.2
- U56A U78G G92A U144A — lower, ≤ -4.2
- C57U C63U G65U G88A A138U — lower, ≤ -4.2
- U56G G84U C85A C99U — lower, ≤ -4.2
- U56A G84A U127G — lower, -3.06
- C57A G70U G80A G83C C87U C108A — lower, ≤ -4.2
- U56C C96U — higher, -0.496
- U56A C96A C103U — higher, 0.293
- U56G G84U A97U C99G G133U — lower, ≤ -4.2
- C57G U82A A98G — lower, -3.69
- C57A A138C — lower, -3.77
- C57G G58C A137C — lower, -3.85
- U56A U130A A147C — lower, -3.18
- C57A G133U — lower, -3.13
- U56A G94U C95A G143U — lower, -3.39
- U56G A60G C99U U102A — lower, -2.07
- C57G G88A C96U U139C A142G — lower, ≤ -4.2
- U56A G81A C103G A121G A122U — within 0.2 log units, -1.56
- U56G G59C C85G U135A — lower, -2.51
- C57A C87U — within 0.2 log units, -1.52
- C57A C87G — lower, -3.18
- C57A G65A G84U A120G — lower, -3.08
- C57A U102G — within 0.2 log units, -1.73
- C57A G74U C85A U130G — lower, ≤ -4.2
- U56A G59A A97U C149U — within 0.2 log units, -1.48
- C57A G117U — higher, 0.691
- C57G A121U U135C — lower, -2.26
- C57A C96U G124A A150C — lower, -3.99
- C57G G59C G86A A142G — lower, -3.23
- U56A G70A C85U A97G G133C — lower, ≤ -4.2
- C57U C75U A107U U127C A150G — lower, ≤ -4.2
- C57A C105U — higher, 1.29
- C57U C87U A113C A119G — lower, -3.09
- C57A A73G C125A — higher, -0.303
- C57A G92U C105G — higher, -1.2
- C57U C85A A98C — higher, -1.23
- C57U A91U U102G G152U — lower, -3.9
- C57U A91C — lower, ≤ -4.2
- C57U A91G — lower, -2.92
- C57G G59U A64C C103G C116G A137C — lower, ≤ -4.2
- C57U C85G — lower, -2.48
- U56G U146G — lower, -3.46
- U56G G68U G92A C93A A106U A115U A150C — lower, ≤ -4.2
- U56A C99U — higher, -0.614
- U56C G68U A121G U148A — lower, ≤ -4.2
- C57G G84U U109G G136U — lower, -3.84
- U56A C93U G141A — lower, -3.72
- C57G A60C — lower, -2.4
- C57A G59C G84U A107G A115U A137G C149U — lower, ≤ -4.2
- U56C C95A U102A — lower, -1.87
- U56A C95U A98U — within 0.2 log units, -1.6
- U56A C95U A98C — higher, -0.392
- U56A U146A U148C — lower, -2.96
- U56A G59A A113C G152U — lower, ≤ -4.2
- U56A C96U C116U G143A — lower, -3.36
- C57G U146A — higher, -0.273
- C57A A89C G94U A142G — lower, -3.19
- C57A G70U C96U — lower, -2.27
- U56G G68C C85A C114A — lower, ≤ -4.2
- C57G C123U U145A — higher, -0.237
- U56A U144A — higher, -0.302
- U56C U78G G80A G84C — lower, ≤ -4.2
- C57G A89U A98U — higher, -1.18
- U56G U135G — lower, -3.68
- U56G U135A — lower, -1.84
- C57G G94A G141C — higher, -0.316
- U56G G70U C85U U151A — lower, ≤ -4.2
